The results in this text go back to patent publication US20200002421A1 (AbbVie / Abbott, published 2020).

The labels stand for the following.
T1: Human full length B7-H3 (human, UniProt Q5ZPR3 29-534)
T1 sequence: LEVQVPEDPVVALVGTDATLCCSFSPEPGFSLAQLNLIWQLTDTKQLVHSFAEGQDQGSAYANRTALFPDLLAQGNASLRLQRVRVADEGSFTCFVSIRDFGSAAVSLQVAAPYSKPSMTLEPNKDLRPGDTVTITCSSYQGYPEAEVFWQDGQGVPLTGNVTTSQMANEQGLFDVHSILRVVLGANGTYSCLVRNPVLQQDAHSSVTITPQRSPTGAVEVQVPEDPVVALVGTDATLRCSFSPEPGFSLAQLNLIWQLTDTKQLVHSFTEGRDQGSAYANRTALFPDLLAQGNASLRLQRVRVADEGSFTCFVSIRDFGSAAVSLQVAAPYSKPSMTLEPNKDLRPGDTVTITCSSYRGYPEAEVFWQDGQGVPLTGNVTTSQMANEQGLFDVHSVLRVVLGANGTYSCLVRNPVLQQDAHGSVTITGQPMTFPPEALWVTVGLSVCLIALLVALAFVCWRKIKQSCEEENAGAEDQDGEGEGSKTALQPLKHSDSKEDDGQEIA

B1: huAb13v1-TX (antibody, human IgG1, kappa, L234A L235A, V domains shown)
VH: EVQLQESGPGLVKPSETLSLTCAVTGYSITSGYSWHWIRQFPGNGLEWMGYIHSSGSTNYNPSLKSRISISRDTSKNQFFLKLSSVTAADTAVYYCAGYDDYFEYWGQGTTVTVSS
VL: DIQMTQSPSSLSASVGDRVTITCKASQNVGFNVAWYQQKPGKSPKALIYSASYRYSGVPSRFSGSGSGTDFTLTISSLQPEDFAEYFCQQYNWYPFTFGQGTKLEIKR
modifications: synthon TX on interchain Cys
B2: huAb13v1-TV (antibody, human IgG1, kappa, L234A L235A, V domains shown)
VH: EVQLQESGPGLVKPSETLSLTCAVTGYSITSGYSWHWIRQFPGNGLEWMGYIHSSGSTNYNPSLKSRISISRDTSKNQFFLKLSSVTAADTAVYYCAGYDDYFEYWGQGTTVTVSS
VL: DIQMTQSPSSLSASVGDRVTITCKASQNVGFNVAWYQQKPGKSPKALIYSASYRYSGVPSRFSGSGSGTDFTLTISSLQPEDFAEYFCQQYNWYPFTFGQGTKLEIKR
modifications: synthon TV on interchain Cys
B3: huAb3v2.5-TV (antibody, human IgG1, kappa, L234A L235A, V domains shown)
VH: EVQLVQSGAEVKKPGSSVKVSCKASGYTFSSYWMHWVRQAPGQGLEWIGLIHPESGSTNYNEMFKNRATLTVDRSTSTAYMELSSLRSEDTAVYYCAGGGRLYFDYWGQGTTVTVSS
VL: DIVMTQSPLSLPVTPGEPASISCRSSQSLVHSNRDTYLRWYLQKPGQSPQLLIYKVSNRFSGVPDRFSGSGSGTDFTLKISRVEAEDVGVYYCSQSTHVPYTFGGGTKVEIKR
modifications: synthon TV on interchain Cys
B4: huAb3v2.5-ZT (antibody, human IgG1, kappa, L234A L235A, V domains shown)
VH: EVQLVQSGAEVKKPGSSVKVSCKASGYTFSSYWMHWVRQAPGQGLEWIGLIHPESGSTNYNEMFKNRATLTVDRSTSTAYMELSSLRSEDTAVYYCAGGGRLYFDYWGQGTTVTVSS
VL: DIVMTQSPLSLPVTPGEPASISCRSSQSLVHSNRDTYLRWYLQKPGQSPQLLIYKVSNRFSGVPDRFSGSGSGTDFTLKISRVEAEDVGVYYCSQSTHVPYTFGGGTKVEIKR
modifications: synthon ZT on interchain Cys
B5: huAb3v2.6-YY (antibody, human IgG1, kappa, L234A L235A, V domains shown)
VH: EVQLVQSGAEVKKPGSSVKVSCKASGYTFSSYWMHWVRQAPGQGLEWIGLIHPESGSTNYNEMFKNRATLTVDRSTSTAYMELSSLRSEDTAVYYCAGGGRLYFDYWGQGTTVTVSS
VL: DIVMTQSPLSLPVTPGEPASISCRSSQSLVHSNQDTYLRWYLQKPGQSPQLLIYKVSNRFSGVPDRFSGSGSGTDFTLKISRVEAEDVGVYYCSQSTHVPYTFGGGTKVEIKR
modifications: synthon YY on interchain Cys
B6: huAb3v2.6-TX (antibody, human IgG1, kappa, L234A L235A, V domains shown)
VH: EVQLVQSGAEVKKPGSSVKVSCKASGYTFSSYWMHWVRQAPGQGLEWIGLIHPESGSTNYNEMFKNRATLTVDRSTSTAYMELSSLRSEDTAVYYCAGGGRLYFDYWGQGTTVTVSS
VL: DIVMTQSPLSLPVTPGEPASISCRSSQSLVHSNQDTYLRWYLQKPGQSPQLLIYKVSNRFSGVPDRFSGSGSGTDFTLKISRVEAEDVGVYYCSQSTHVPYTFGGGTKVEIKR
modifications: synthon TX on interchain Cys
B7: huAb3v2.5-WD (antibody, human IgG1, kappa, L234A L235A, V domains shown)
VH: EVQLVQSGAEVKKPGSSVKVSCKASGYTFSSYWMHWVRQAPGQGLEWIGLIHPESGSTNYNEMFKNRATLTVDRSTSTAYMELSSLRSEDTAVYYCAGGGRLYFDYWGQGTTVTVSS
VL: DIVMTQSPLSLPVTPGEPASISCRSSQSLVHSNRDTYLRWYLQKPGQSPQLLIYKVSNRFSGVPDRFSGSGSGTDFTLKISRVEAEDVGVYYCSQSTHVPYTFGGGTKVEIKR
modifications: synthon WD on interchain Cys
B8: huAb3v2.5-XW (antibody, human IgG1, kappa, L234A L235A, V domains shown)
VH: EVQLVQSGAEVKKPGSSVKVSCKASGYTFSSYWMHWVRQAPGQGLEWIGLIHPESGSTNYNEMFKNRATLTVDRSTSTAYMELSSLRSEDTAVYYCAGGGRLYFDYWGQGTTVTVSS
VL: DIVMTQSPLSLPVTPGEPASISCRSSQSLVHSNRDTYLRWYLQKPGQSPQLLIYKVSNRFSGVPDRFSGSGSGTDFTLKISRVEAEDVGVYYCSQSTHVPYTFGGGTKVEIKR
modifications: synthon XW on interchain Cys
B9: huAb3v2.6-TV (antibody, human IgG1, kappa, L234A L235A, V domains shown)
VH: EVQLVQSGAEVKKPGSSVKVSCKASGYTFSSYWMHWVRQAPGQGLEWIGLIHPESGSTNYNEMFKNRATLTVDRSTSTAYMELSSLRSEDTAVYYCAGGGRLYFDYWGQGTTVTVSS
VL: DIVMTQSPLSLPVTPGEPASISCRSSQSLVHSNQDTYLRWYLQKPGQSPQLLIYKVSNRFSGVPDRFSGSGSGTDFTLKISRVEAEDVGVYYCSQSTHVPYTFGGGTKVEIKR
modifications: synthon TV on interchain Cys
B10: huAb3v2.5-SE (antibody, human IgG1, kappa, L234A L235A, V domains shown)
VH: EVQLVQSGAEVKKPGSSVKVSCKASGYTFSSYWMHWVRQAPGQGLEWIGLIHPESGSTNYNEMFKNRATLTVDRSTSTAYMELSSLRSEDTAVYYCAGGGRLYFDYWGQGTTVTVSS
VL: DIVMTQSPLSLPVTPGEPASISCRSSQSLVHSNRDTYLRWYLQKPGQSPQLLIYKVSNRFSGVPDRFSGSGSGTDFTLKISRVEAEDVGVYYCSQSTHVPYTFGGGTKVEIKR
modifications: synthon SE on interchain Cys
B11: huAb3v2.5-LB (antibody, human IgG1, kappa, L234A L235A, V domains shown)
VH: EVQLVQSGAEVKKPGSSVKVSCKASGYTFSSYWMHWVRQAPGQGLEWIGLIHPESGSTNYNEMFKNRATLTVDRSTSTAYMELSSLRSEDTAVYYCAGGGRLYFDYWGQGTTVTVSS
VL: DIVMTQSPLSLPVTPGEPASISCRSSQSLVHSNRDTYLRWYLQKPGQSPQLLIYKVSNRFSGVPDRFSGSGSGTDFTLKISRVEAEDVGVYYCSQSTHVPYTFGGGTKVEIKR
modifications: synthon LB on interchain Cys
B12: huAb3v2.5-ZZ (antibody, human IgG1, kappa, L234A L235A, V domains shown)
VH: EVQLVQSGAEVKKPGSSVKVSCKASGYTFSSYWMHWVRQAPGQGLEWIGLIHPESGSTNYNEMFKNRATLTVDRSTSTAYMELSSLRSEDTAVYYCAGGGRLYFDYWGQGTTVTVSS
VL: DIVMTQSPLSLPVTPGEPASISCRSSQSLVHSNRDTYLRWYLQKPGQSPQLLIYKVSNRFSGVPDRFSGSGSGTDFTLKISRVEAEDVGVYYCSQSTHVPYTFGGGTKVEIKR
modifications: synthon ZZ on interchain Cys
B13: huAb3v2.5-AAA (antibody, human IgG1, kappa, L234A L235A, V domains shown)
VH: EVQLVQSGAEVKKPGSSVKVSCKASGYTFSSYWMHWVRQAPGQGLEWIGLIHPESGSTNYNEMFKNRATLTVDRSTSTAYMELSSLRSEDTAVYYCAGGGRLYFDYWGQGTTVTVSS
VL: DIVMTQSPLSLPVTPGEPASISCRSSQSLVHSNRDTYLRWYLQKPGQSPQLLIYKVSNRFSGVPDRFSGSGSGTDFTLKISRVEAEDVGVYYCSQSTHVPYTFGGGTKVEIKR
modifications: synthon AAA on interchain Cys
B14: huAb3v2.5-AAD (antibody, human IgG1, kappa, L234A L235A, V domains shown)
VH: EVQLVQSGAEVKKPGSSVKVSCKASGYTFSSYWMHWVRQAPGQGLEWIGLIHPESGSTNYNEMFKNRATLTVDRSTSTAYMELSSLRSEDTAVYYCAGGGRLYFDYWGQGTTVTVSS
VL: DIVMTQSPLSLPVTPGEPASISCRSSQSLVHSNRDTYLRWYLQKPGQSPQLLIYKVSNRFSGVPDRFSGSGSGTDFTLKISRVEAEDVGVYYCSQSTHVPYTFGGGTKVEIKR
modifications: synthon AAD on interchain Cys
B15: huAb3v2.6-CZ (antibody, human IgG1, kappa, L234A L235A, V domains shown)
VH: EVQLVQSGAEVKKPGSSVKVSCKASGYTFSSYWMHWVRQAPGQGLEWIGLIHPESGSTNYNEMFKNRATLTVDRSTSTAYMELSSLRSEDTAVYYCAGGGRLYFDYWGQGTTVTVSS
VL: DIVMTQSPLSLPVTPGEPASISCRSSQSLVHSNQDTYLRWYLQKPGQSPQLLIYKVSNRFSGVPDRFSGSGSGTDFTLKISRVEAEDVGVYYCSQSTHVPYTFGGGTKVEIKR
modifications: synthon CZ on interchain Cys
B16: huAb3v2.5-KZ (antibody, human IgG1, kappa, L234A L235A, V domains shown)
VH: EVQLVQSGAEVKKPGSSVKVSCKASGYTFSSYWMHWVRQAPGQGLEWIGLIHPESGSTNYNEMFKNRATLTVDRSTSTAYMELSSLRSEDTAVYYCAGGGRLYFDYWGQGTTVTVSS
VL: DIVMTQSPLSLPVTPGEPASISCRSSQSLVHSNRDTYLRWYLQKPGQSPQLLIYKVSNRFSGVPDRFSGSGSGTDFTLKISRVEAEDVGVYYCSQSTHVPYTFGGGTKVEIKR
modifications: synthon KZ on interchain Cys
B17: huAb3v2.5-SR (antibody, human IgG1, kappa, L234A L235A, V domains shown)
VH: EVQLVQSGAEVKKPGSSVKVSCKASGYTFSSYWMHWVRQAPGQGLEWIGLIHPESGSTNYNEMFKNRATLTVDRSTSTAYMELSSLRSEDTAVYYCAGGGRLYFDYWGQGTTVTVSS
VL: DIVMTQSPLSLPVTPGEPASISCRSSQSLVHSNRDTYLRWYLQKPGQSPQLLIYKVSNRFSGVPDRFSGSGSGTDFTLKISRVEAEDVGVYYCSQSTHVPYTFGGGTKVEIKR
modifications: synthon SR on interchain Cys
B18: huAb3v2.5-YY (antibody, human IgG1, kappa, L234A L235A, V domains shown)
VH: EVQLVQSGAEVKKPGSSVKVSCKASGYTFSSYWMHWVRQAPGQGLEWIGLIHPESGSTNYNEMFKNRATLTVDRSTSTAYMELSSLRSEDTAVYYCAGGGRLYFDYWGQGTTVTVSS
VL: DIVMTQSPLSLPVTPGEPASISCRSSQSLVHSNRDTYLRWYLQKPGQSPQLLIYKVSNRFSGVPDRFSGSGSGTDFTLKISRVEAEDVGVYYCSQSTHVPYTFGGGTKVEIKR
modifications: synthon YY on interchain Cys
B19: huAb3v2.5-YG (antibody, human IgG1, kappa, L234A L235A, V domains shown)
VH: EVQLVQSGAEVKKPGSSVKVSCKASGYTFSSYWMHWVRQAPGQGLEWIGLIHPESGSTNYNEMFKNRATLTVDRSTSTAYMELSSLRSEDTAVYYCAGGGRLYFDYWGQGTTVTVSS
VL: DIVMTQSPLSLPVTPGEPASISCRSSQSLVHSNRDTYLRWYLQKPGQSPQLLIYKVSNRFSGVPDRFSGSGSGTDFTLKISRVEAEDVGVYYCSQSTHVPYTFGGGTKVEIKR
modifications: synthon YG on interchain Cys

The target in this assay is T1, Human full length B7-H3. Description: cell-based or functional assay.
In the case of B1, the “EC50 nM H1650 (in vitro tumor cell cytotoxicity)” value (from here on “EC50 nM H1650”) is 0.22 nM.
As for B2, the figure is 0.43 nM.
B3: the “EC50 nM H1650” value amounted to 0.53 nM.
As for B4, the figure is 0.95 nM.
As for B5, the “EC50 nM H1650” value turned out to be 0.72 nM.
For B6 the value was 0.47 nM.
As for B7, the figure is 0.83 nM; as for B8, 2.18 nM.
For B9 the value was 0.52 nM; for B10, 0.85 nM.
In the case of B11, the “EC50 nM H1650” value came to 2.59 nM.
For B12 the value was 1.1 nM; for B13, 0.85 nM; for B14, 0.49 nM.
As for B15, the figure is 0.4 nM; as for B16, 0.87 nM; as for B17, 0.59 nM.
For B18 the value was 0.71 nM; for B19, 0.71 nM.
